For 36 sequences, protein stability index results are on record in the supplement of paper PMC10567573.

This data set in a line: protein stability index of a GFP-peptide fusion (GPS, HEK-293T) (PSI 1-6); higher = more stable. The conditions noted are these: c terminus: a fixed tail appended.

± gives the standard deviation.
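Also: 24-mer peptide tiles fused after GFP, lentivirally expressed, FACS-sorted into six equal bins by GFP/DsRed ratio, decoded by Illumina sequencing, PSI is the read-weighted mean bin number.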

As to CRERWHNHLNPEVKKSCWTEEEDR [MYBL2], the protein stability index reads like this: (treatment: DMSO) 4.2 ± 0.4; (treatment: MLN4924 1 uM, 8 h) 4.34 ± 0.25.
The like results for CRLRCHPPRGPLAKHRLVPPAQGR [TRIM9] were, in that order, 2.84 ± 0.14 and 3.47 ± 0.56.
As for CSRTWTNRLCHQEMGSKKTVTQED [SPAG8], the protein stability index was 3.7 ± 0.13 (treatment: DMSO) and 3.74 ± 0.14 (treatment: MLN4924 1 uM, 8 h).
As for CSSSGKDGNLCLHVPNPPSGISFP [HESX1], the protein stability index was 3.15 ± 0.18 (treatment: DMSO) and 3.25 ± 0.33 (treatment: MLN4924 1 uM, 8 h).
The matching figures for CSWKGATKQRIQDQKVPYIFRDNQ [CHIT1]: 2.87 ± 0.24 and 3.14 ± 0.62.
CTHCSKSFRQRAGLIMHQVTHFRG [ZNF449]: the protein stability index was found to be 2.46 ± 0.53 (treatment: DMSO) and 3.02 ± 0.52 (treatment: MLN4924 1 uM, 8 h).
The like results for DADILGLKKSNSAPSKKAAKDPGK [FBF1] were, in that order, 5.18 ± 0.18 and 5.22 ± 0.42.
The matching figures for DARYKLHHHLHKTLREITDQEHNV [TEKT4]: 3.77 ± 0.29 and 4.02 ± 0.14.
The like results for DAVQTSLMDEGASSEKKRQSSADG [RBBP5] were, in that order, 5.49 ± 0.26 and 5.48 ± 0.19.
Regarding DDDFSIHAAHVVCRELGYVEAKSW [LOXL2], the protein stability index turned out to be 2.72 ± 0.24 (treatment: DMSO) and 2.83 ± 0.33 (treatment: MLN4924 1 uM, 8 h).
The matching figures for DEELHLLIISCRKLFYFKIWAFLD [FBXO39]: 2.75 ± 0.52 and 2.47 ± 0.69.
Regarding DENSSDGRYVKENCKPLKSYMLQD [CLK3], the protein stability index by setting is: (treatment: DMSO) 4.57 ± 0.49; (treatment: MLN4924 1 uM, 8 h) 4.36 ± 0.11.
The like results for DETFLATSFLQHPWDESGSGCLPP [FOXJ1] were, in that order, 4.15 ± 0.16 and 4.11 ± 0.079.
The matching figures for DFCEPSFVTGNCLEISPDCSQYDR [PCMTD2]: 4.38 ± 0.32 and 4.4 ± 0.22.
The matching figures for DGSYALNGEYTLMPSPTDVVLPGA [ADAMTS4]: 4.4 ± 0.2 and 3.87 ± 0.36.
DHEDFTGSSSLGFTSSPSPFSSSS [FCHO1]: the protein stability index amounted to 4.45 ± 0.15 (treatment: DMSO) and 4.37 ± 0.14 (treatment: MLN4924 1 uM, 8 h).
The matching figures for DHRGRMVKHQCCPGCGYFCTAGNF [EHMT1]: 2.79 ± 0.14 and 3.14 ± 0.17.
As to DIASRYPTLWTEQVKSRQNKTNKN [SMOC2], the protein stability index (treatment: DMSO) worked out at 3.98 ± 0.18 and the protein stability index (treatment: MLN4924 1 uM, 8 h) amounted to 4.36 ± 0.33.
The like results for DIEQFFNIGDSSSGLIQTVFISSY [SPNS1] were, in that order, 2.68 ± 0.39 and 2.66 ± 0.8.
As to DIFALALTVVCAAGAEPLPRNGDQ [WEE1], the protein stability index reads like this: (treatment: DMSO) 2.77 ± 0.22; (treatment: MLN4924 1 uM, 8 h) 2.54 ± 0.61.
As to DILMEEEEGVVGGLSGGALSPLRA [TFE3], the protein stability index is, setting by setting: (treatment: DMSO) 4.45 ± 0.42; (treatment: MLN4924 1 uM, 8 h) 4.11 ± 0.23.
The matching figures for DIVFSKIKGKSCRTITFEQFQEAL [TPPP]: 2.46 ± 0.29 and 2.31 ± 0.13.
The like results for DLFDLCDRTFTLKTVLMIAIQLLS [CSNK1G1] were, in that order, 2.6 ± 0.43 and 2.33 ± 0.42.
As for DLKLGNFFINEAMELKVGDFGLAA [PLK2], the protein stability index amounted to 2.14 ± 0.078 (treatment: DMSO) and 2.63 ± 0.17 (treatment: MLN4924 1 uM, 8 h).
The like results for DLLPVWLLEDMRASEAFHWDERGR [ANKRD9] were, in that order, 2.52 ± 0.5 and 2.87 ± 0.45.
On to DLQITDQVALLRLTWSELFVLNAA [NR2F2], for which the protein stability index reads like this: (treatment: DMSO) 2.92 ± 0.58; (treatment: MLN4924 1 uM, 8 h) 2.88 ± 0.65.
For the sequence DLSGRRLRDVNHEKAMAEWVKQQA [SDE2], the protein stability index reads like this: (treatment: DMSO) 4.24 ± 0.2; (treatment: MLN4924 1 uM, 8 h) 4.13 ± 0.37.
The like results for DNPFGIYQKILAGKIDFPRHLDFH [PRKX] were, in that order, 2.1 ± 0.33 and 2.23 ± 0.28.
The matching figures for DPEVFKEMMRFIYTGRAPNLDKMA [SPOPL]: 2.25 ± 0.32 and 2.41 ± 0.26.
The like results for DPGQQFTWEHSNLEVNKPKNRYAN [PTPRD] were, in that order, 4.99 ± 0.39 and 4.98 ± 0.26.
On to DPGQVGLINSNVSMVDLTSVTLED [FAN1], for which the protein stability index by setting is: (treatment: DMSO) 5.05 ± 0.092; (treatment: MLN4924 1 uM, 8 h) 4.79 ± 0.2.
The like results for DPSGVSGATVGRKSRRSRSESETS [C18orf25] were, in that order, 5.69 ± 0.17 and 5.42 ± 0.49.
The like results for DQLFMQEKARQLLGRLKPSHTSRT [MYBL2] were, in that order, 3.29 ± 0.27 and 3.76 ± 0.43.
The like results for DQLLLNYAKKESDLNGAQIKLREY [LMNB1] were, in that order, 3.617 ± 0.031 and 3.71 ± 0.1.
Consider DRECKLPPPSAPASEYCPGKLSWG [WDR88], for which the protein stability index runs as follows: (treatment: DMSO) 3.79 ± 0.13; (treatment: MLN4924 1 uM, 8 h) 3.96 ± 0.36.
Take DREGYTSFWNDCISSGLRGCMLIE [GOLPH3]: the protein stability index came out at 2.08 ± 0.28 (treatment: DMSO) and 2.31 ± 0.19 (treatment: MLN4924 1 uM, 8 h).
